Our source for the Kd, koff and kon values is patent US20200140526A1 (UNIVERSITY OF ROCHESTER, published 2020).

The target in assay [1] is T1, recombinant (r)HA of pH1N1 A/California/04/2009 (Protein Sciences Corp.) (influenza A virus A/California/04/2009 …, UniProt P26140 18-529).
The target in assay [2] is T1, recombinant (r)HA of pH1N1 …. The source holds these as a separate data set.

B1: KPF1 human monoclonal antibody (hmAb) (antibody, V domains shown)
VH: EVQLLESGGGLVQPGGSLRISCAASGSTFGDFAMSWVRQSPGRGLEWVSVTSAGGDRTYYADSVKGRFTISRDNSKNTLYLQMNSLRGEDTAMYYCARLDSSGFHYGRPGRNWGQGTLVTVSS
VL: DIQMTHSPPSLSASVGDRITITCQASQDISYYLIWYQQKPGKAPKPLIYDASNLEAGVPSRFSASGSGTDFTLTISSLQPEDLATYYCQQYKSLPYTFGQGTKLEIK
With B1, the equilibrium dissociation constant (Kd) in assay [1] was 0.178 nM. In addition, in assay [2], the koff turned out to be 3.42e-05 s⁻¹ and the kon turned out to be 192000 M⁻¹ s⁻¹.
